T1: human IL-33 (R&D Systems, #3625-IL-010/CF) (human, UniProt O95760 112-270)
T1 construct: also called hIL-33; huIL-33
T1 sequence (looked up): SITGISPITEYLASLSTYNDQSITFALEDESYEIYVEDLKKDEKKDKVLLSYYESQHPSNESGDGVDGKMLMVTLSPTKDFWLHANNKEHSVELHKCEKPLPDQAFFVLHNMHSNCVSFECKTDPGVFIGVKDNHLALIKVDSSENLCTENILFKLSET

T2: cynomolgus monkey N-terminal 6-His-tagged and C-terminal Avi-tagged IL-33 (S112-T270) (cynomolgus monkey)
T2 chain: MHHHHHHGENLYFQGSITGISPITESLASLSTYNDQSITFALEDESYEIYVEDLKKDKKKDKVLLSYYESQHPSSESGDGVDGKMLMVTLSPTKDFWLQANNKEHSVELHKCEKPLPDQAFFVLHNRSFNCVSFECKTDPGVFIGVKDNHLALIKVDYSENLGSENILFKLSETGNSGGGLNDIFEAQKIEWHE

T3: human IL-33 N-His (human)
T3 chain: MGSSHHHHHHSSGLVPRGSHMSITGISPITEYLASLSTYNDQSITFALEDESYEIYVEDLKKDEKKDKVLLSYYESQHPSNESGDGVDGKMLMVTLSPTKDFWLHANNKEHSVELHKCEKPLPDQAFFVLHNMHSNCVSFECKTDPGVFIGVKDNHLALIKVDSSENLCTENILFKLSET

T4: human IL-33 (construct not stated) (human, UniProt O95760 112-270)
T4 sequence (looked up): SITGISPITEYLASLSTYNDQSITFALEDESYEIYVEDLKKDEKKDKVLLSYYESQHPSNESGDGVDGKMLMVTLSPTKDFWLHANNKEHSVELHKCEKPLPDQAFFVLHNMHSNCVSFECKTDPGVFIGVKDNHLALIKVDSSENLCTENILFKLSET

B1: H4H9659P (antibody, IgG4, V domains shown)
VH: QVQLVQSGAEVKKPGASVKVSCKASGYTFNSYGISWVRQAPGQGLEWMGWISSHNGNSHYVQKFQGRVSMTTDTSTSTAYMELRSLRSDDTAVYYCARHSYTTSWYGGFDYWGQGTLVTVSS
VL: DIQMTQSPSSVSASVGDRVTITCRASQGFSSWLAWYQQKPGKAPQLLIYAASSLQSGVPSRFSGSGSGSDFTLTISSLQPEDFATYYCQQANSFPLTFGGGTKVEIK
notes: also called RG7
B2: 10C12.38.H6.87Y.58I IgG4 (antibody, V domains shown)
VH: EVQLVESGGGLVQPGGSLRLSCAASGFTFSSFSMSWVRQAPGKGLEWVATISGGKTFTDYVDSVKGRFTISRDDSKNTLYLQMNSLRAEDTAVYYCTRANYGNWFFEVWGQGTLVTVSS
VL: EIVLTQSPATLSLSPGERATLSCRASESVAKYGLSLLNWFQQKPGQPPRLLIFAASNRGSGIPARFSGSGSGTDFTLTISSLEPEDFAVYYCQQSKEVPFTFGQGTKVEIKR
notes: also called anti-IL33 10C12.38.H6.87Y.58I IgG4

Tests used:
[1] = target: T1, human IL-33 (R&D Systems, …); test: SPR Biacore T200, 25 C
Summary of the method: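 Antibodies captured via anti-Fc on CM5 chip; IL-33 injected at 3.7–100 nM (three-fold series), 4 min association, 10 min dissociation, 30 μl/min, ADA pH 7.4 buffer with 0.15 M NaCl, EDTA, Tween-20, at 25 °C or 37 °C. KD = koff/kon from 1:1 Langmuir fit; t1/2 = ln(2)/(60*koff).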

[2] = target: T1, human IL-33 (R&D Systems, …); test: cell-based or functional assay
[3] = target: T1, human IL-33 (R&D Systems, …); test: cell-based or functional assay; remark: listed apart in the source
[4] = target: T1, human IL-33 (R&D Systems, …); test: cell-based or functional assay; remark: listed apart in the source
[5] = target: T2, cynomolgus monkey N-terminal …; test: cell-based or functional assay
[6] = target: T1, human IL-33 (R&D Systems, …); test: cell-based or functional assay; remark: listed apart in the source
[7] = target: T1, human IL-33 (R&D Systems, …); test: cell-based or functional assay; remark: listed apart in the source
human IL-33 N-His = target: T3, human IL-33 N-His; test: cell-based or functional assay
[8] = target: T1, human IL-33 (R&D Systems, …); test: cell-based or functional assay; remark: listed apart in the source
[9] = target: T2, cynomolgus monkey N-terminal …; test: cell-based or functional assay
[10] = target: T4, human IL-33 (construct not stated); test: cell-based or functional assay

Row | Binder | Kd [1] [nM] | koff [1] [s⁻¹] | kon [1] [M⁻¹ s⁻¹] | t1/2 [1] [min] | IC50; IFN-gamma ELISA, primary human NK cells, 260 pM hIL-33 + IL-12 [2] [M] | Ph-p38 MFI at 2 nM Ab (500 pM human IL-33, primary basophils) [3] [MFI] | IC50; SEAP reporter (OD 620), HEK-BLUE IL-33/IL-1beta cells, 10 pM hIL-33 [4] [M] | IC50; SEAP reporter (OD 620), HEK-BLUE IL-33/IL-1beta cells, 5 pM cyno IL-33 (5pM cIL-33-Nhis) [5] [M] | IC50 (read off the curve) [6] [nM] | IC50, IL-33-induced phospho-p38 in primary human basophils, 500 pM hIL-33 [7] [M] | IC50; SEAP reporter, HEK-BLUE IL-33 cells, 15 pM human IL-33 N-His, 20 h (human IL-33 N-His) [pM] | HEK-BLUE SEAP reporter IC50 [8] [nM] | IFN-γ secretion from primary NK cells, IC50 [8] [nM] | phospho-p38 in primary basophils, IC50 [8] [nM] | HEK-BLUE SEAP reporter IC50 [9] [nM] | IC50 (read off the curve); phospho-p38 MFI in CD123+ basophils (average from 2 donors), 10 ng/ml IL-33 [10] [nM]
1 | B1 | 1.09 | 0.000499 | 456000 | 23 | 5.1e-10 | 49 | 9.2e-11 | 6.6e-08 | ~0.0007 | 6.7e-13 |  |  |  |  |  | 
2 | B2 | 0.133 | 0.000613 | 4.6e+06 | 19 | 3.3e-11 | 23 |  |  |  |  | 12 | 0.0024 | 0.03 | 0.00015 | 4.2 | ~0.3

— US20190092852A1 (Genentech, published 2019)
